Results published in PMC10235943.

Legend:
[1] = molecular target: endogenous IP3R1 (UniProt Q14643); assay: sucrose density gradient fractionation
[2] = molecular target: transiently expressed IP3R1 (wild type) (human) (UniProt Q14643); assay: sucrose density gradient fractionation

Chain of transiently expressed IP3R1 (wild type), Q14643-1 1-2758 (receptor) (Q14643 whole entry): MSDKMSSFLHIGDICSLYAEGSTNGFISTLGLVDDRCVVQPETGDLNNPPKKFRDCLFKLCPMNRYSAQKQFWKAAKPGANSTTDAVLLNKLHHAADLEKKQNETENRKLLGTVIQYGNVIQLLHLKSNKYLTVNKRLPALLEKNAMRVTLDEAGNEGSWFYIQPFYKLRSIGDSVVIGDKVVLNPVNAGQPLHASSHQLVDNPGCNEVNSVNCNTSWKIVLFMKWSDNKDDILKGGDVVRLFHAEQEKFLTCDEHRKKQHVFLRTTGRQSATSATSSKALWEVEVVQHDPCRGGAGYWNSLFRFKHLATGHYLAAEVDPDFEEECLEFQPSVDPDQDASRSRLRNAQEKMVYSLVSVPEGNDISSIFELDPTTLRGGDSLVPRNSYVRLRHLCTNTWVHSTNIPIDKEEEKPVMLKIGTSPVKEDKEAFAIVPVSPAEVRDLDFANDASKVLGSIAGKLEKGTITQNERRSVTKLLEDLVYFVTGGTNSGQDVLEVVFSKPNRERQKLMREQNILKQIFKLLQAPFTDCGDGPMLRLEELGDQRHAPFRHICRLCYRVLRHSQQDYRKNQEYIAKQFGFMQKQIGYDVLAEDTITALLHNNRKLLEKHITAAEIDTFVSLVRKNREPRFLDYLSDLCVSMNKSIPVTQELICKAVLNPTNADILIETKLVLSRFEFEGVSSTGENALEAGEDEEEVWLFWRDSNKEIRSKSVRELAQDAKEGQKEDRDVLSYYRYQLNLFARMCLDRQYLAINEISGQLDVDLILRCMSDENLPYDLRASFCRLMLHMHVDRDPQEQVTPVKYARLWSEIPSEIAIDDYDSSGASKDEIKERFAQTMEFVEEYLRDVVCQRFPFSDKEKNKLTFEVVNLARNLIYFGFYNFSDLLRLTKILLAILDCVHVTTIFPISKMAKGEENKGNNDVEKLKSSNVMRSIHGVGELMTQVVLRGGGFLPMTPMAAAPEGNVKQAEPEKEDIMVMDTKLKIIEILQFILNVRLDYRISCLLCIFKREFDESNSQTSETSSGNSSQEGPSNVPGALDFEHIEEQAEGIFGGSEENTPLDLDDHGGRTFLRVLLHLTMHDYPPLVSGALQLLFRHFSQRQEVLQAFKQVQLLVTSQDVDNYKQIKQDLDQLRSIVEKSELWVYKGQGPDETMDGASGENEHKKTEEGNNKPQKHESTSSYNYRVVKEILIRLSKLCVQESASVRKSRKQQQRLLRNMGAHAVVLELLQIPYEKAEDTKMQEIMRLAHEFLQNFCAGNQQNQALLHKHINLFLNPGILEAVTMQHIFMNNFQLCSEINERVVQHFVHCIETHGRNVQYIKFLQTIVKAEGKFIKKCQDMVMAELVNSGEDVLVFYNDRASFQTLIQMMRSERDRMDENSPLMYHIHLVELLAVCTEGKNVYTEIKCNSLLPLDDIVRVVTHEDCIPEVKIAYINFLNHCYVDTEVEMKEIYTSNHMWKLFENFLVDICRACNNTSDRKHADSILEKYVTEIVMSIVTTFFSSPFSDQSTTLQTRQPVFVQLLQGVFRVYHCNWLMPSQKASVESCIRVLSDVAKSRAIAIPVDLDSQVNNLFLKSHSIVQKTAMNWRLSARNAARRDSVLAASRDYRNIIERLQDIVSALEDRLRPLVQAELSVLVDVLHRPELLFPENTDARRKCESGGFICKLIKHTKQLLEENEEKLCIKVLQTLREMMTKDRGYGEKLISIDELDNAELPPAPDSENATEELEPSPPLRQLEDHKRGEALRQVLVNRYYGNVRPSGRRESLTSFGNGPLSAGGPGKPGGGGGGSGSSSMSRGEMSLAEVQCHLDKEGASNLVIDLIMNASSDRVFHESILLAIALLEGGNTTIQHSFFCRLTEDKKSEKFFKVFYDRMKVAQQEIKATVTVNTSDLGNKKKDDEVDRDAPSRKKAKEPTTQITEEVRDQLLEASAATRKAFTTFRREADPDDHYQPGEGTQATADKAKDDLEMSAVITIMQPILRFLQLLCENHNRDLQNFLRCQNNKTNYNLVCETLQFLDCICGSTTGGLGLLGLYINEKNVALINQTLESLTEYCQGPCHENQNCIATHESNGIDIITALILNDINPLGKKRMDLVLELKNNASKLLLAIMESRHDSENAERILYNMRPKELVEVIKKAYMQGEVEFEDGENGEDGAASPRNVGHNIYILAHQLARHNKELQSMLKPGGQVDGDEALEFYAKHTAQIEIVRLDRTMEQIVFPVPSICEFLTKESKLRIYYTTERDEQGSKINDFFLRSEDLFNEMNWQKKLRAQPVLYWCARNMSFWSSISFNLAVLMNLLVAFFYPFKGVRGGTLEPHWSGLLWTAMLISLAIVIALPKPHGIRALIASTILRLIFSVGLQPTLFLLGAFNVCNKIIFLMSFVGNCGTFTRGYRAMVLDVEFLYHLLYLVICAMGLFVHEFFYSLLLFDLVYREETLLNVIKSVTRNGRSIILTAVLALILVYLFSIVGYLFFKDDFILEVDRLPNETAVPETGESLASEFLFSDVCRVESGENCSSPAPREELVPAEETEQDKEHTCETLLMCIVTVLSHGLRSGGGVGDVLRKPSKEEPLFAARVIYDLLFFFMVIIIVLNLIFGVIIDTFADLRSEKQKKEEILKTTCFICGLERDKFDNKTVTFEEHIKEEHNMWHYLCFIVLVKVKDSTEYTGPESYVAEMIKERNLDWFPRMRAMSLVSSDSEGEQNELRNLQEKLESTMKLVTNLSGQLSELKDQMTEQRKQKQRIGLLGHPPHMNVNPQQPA

Substance	stoichiometry N [1]	stoichiometry N [2]
endogenous IP3R1, Q14643-1 1-2758 (receptor)	4	
transiently expressed IP3R1 (wild type), Q14643-1 1-2758 (receptor)		4
